“Also recorded” adds a separate entry of the source.
Legend:
[1] = system: A549 xenograft tumors; assay: Enhancement of irinotecan therapy in A549 xenograft tumors; type: in vivo, CB17-SCID/beige mice; settings: 2 mg/kg i.v. one hour before irinotecan 37.5 mg/kg i.v.; tumor volume
Protocol: FIG. 5A-5B. Correlation of reduced DSG2 binding with the ability to open epithelial junctions. FIG. 5A) Transepithelial electrical resistance (TEER) measured on polarized colon cancer T84 cells. Cells were cultured in transwell chambers until the TEER was constant, i.e. tight junctions had formed. A total of 5 μg of dimeric Ad3 fiber knobs in PBS was then added for 1 hour to the apical chamber. TEER was measured at the indicated time points. N=6. For time points 1.5 and 4 hours the difference between JO-1 vs D261N and N186D was significant (p<0.01). The arrows indicate the addition and removal of Ad3 fiber knobs. FIG. 5B) Enhancement of irinotecan therapy. A total of 4×10^6 A549 cells were injected subcutaneously into CB17-SCID/beige mice. Once the tumor reached a volume of ˜100 mm^3 (day 15 after implantation), the mice were injected intravenously with 2 mg/kg JO-1, E299V, N186D, or PBS, followed by an intravenous injection of irinotecan (37.5 mg/kg) one hour later. The treatment was repeated on day 25. N=5. […] The difference between “irinotecan” vs “JO-1+irinotecan” was significant (p<0.01) from day 20 on.
(§1) FIG. 10A-10C. Combination of affinity-enhanced JO-1 versions with chemotherapy. FIG. 10A) Enhancement of irinotecan (I) therapy. The experimental setting was the same as in FIG. 5B. […] N=5. […] Mammary fat pad tumors were established from primary ovarian cancer ovc316 cells. Treatment was started when tumors reached a volume of 100 mm^3. Mice were injected intravenously with 2 mg/kg JO-1 or with 0.5 mg/kg JO-4, followed by an intravenous injection of PEGylated liposomal doxorubicin (PLD) (1 mg/kg) one hour later. Treatment was repeated weekly. […] A total of 4×10^6 TNBC MDA-MB-231 cells were injected into the mammary fat pad of CB17 SCID-beige mice. JO-4 (2 mg/kg) was intravenously injected 1 hour before the application of cetuximab (C) (10 mg/kg, i.p.) and nab-paclitaxel (nab-P) (5 mg/kg, i.v.). Treatment was given weekly. N=10 P<0.01 at day 25 for nab-P+C vs JO-4+nab-P+C.
A549, MDA-MB-231, and ovc316 xenograft tumors were established by injection of the corresponding tumor cells into the mammary fat pad (1:1 with Matrigel) of CB17 mice. TC1-DSG2 tumors were established by subcutaneous injection of TC1-DSG2 cells into DSG2 transgenic mice. JO-0, JO-1, JO-2, or JO-4 were intravenously injected one hour before the application of chemotherapeutic drugs: Irinotecan/Camptosar™ (Pfizer Inc., Groton, CT), PEGylated liposomal doxorubicin/Lipodox™ (Sun Pharmaceuticals IN, India), cetuximab/Erbitux™ (ImClone, Somerville, NJ), nanoparticle albumin conjugated paclitaxel/Abraxane” (Abraxis Biosciences, Summit, NJ). Tumor volumes were measured three times a week. Each treatment group consisted of a minimum of 5 mice.

[2] = system: ovc316 xenograft tumors; assay: Enhancement of PLD therapy in ovc316 ovarian cancer xenograft tumors; type: in vivo, CB17 mice; settings: weekly
Protocol: as §1
A549, MDA-MB-231, and ovc316 xenograft tumors were established by injection of the corresponding tumor cells into the mammary fat pad (1:1 with Matrigel) of CB17 mice. TC1-DSG2 tumors were established by subcutaneous injection of TC1-DSG2 cells into DSG2 transgenic mice. […] Tumor volumes were measured three times a week. […]

[3] = system: TC1-hDSG2 tumors; assay: PLD therapy with repeated injection in immunocompetent mice with TC1-hDSG2 tumors; type: in vivo, hDSG2 transgenic mice; settings: 2 mg/kg i.v. one hour before PLD 1.5 mg/kg; 3rd and 4th cycle, serum antibodies detectable
Protocol: FIG. 11A-11C. Pharmacokinetics, toxicity, and immunogenicity of JO-4. FIG. 11A) Serum clearance of JO-1 and JO-4. hDSG2 transgenic mice with subcutaneous TC1-hDSG2 tumors (˜600 mm^3) were intravenously injected with JO-1 or JO-4 (2 mg/kg) and serum samples were analyzed for by ELISA. N=3. Note that the y-axis has a log scale. FIG. 11B1) Lymphocyte and FIG. 11B2) platelet counts in hDSG2/TC1-hDSG2 transgenic mice after JO-1 or JO-4 injection. N=3. FIG. 11C) Therapy studies in immunocompetent hDSG2 transgenic mice with TC1-hDSG2 tumors. When tumors reached a volume of ˜80 mm^3, JO-1 or JO-4 (2 mg/kg) or PBS was injected intravenously followed one hour later by PLD/Doxil (i.v. 1.5 mg/kg). Treatment was repeated as indicated by arrows. Tumors were then allowed to re-grow for about two weeks. From day 15 on serum anti-JO-1/J)—4 antibodies were detectable by ELISA. Two more treatment cycles were performed at day 28 and day 35. […] The difference between JO-1/PLD vs JO-4/PLD is significant from day 31 on. N=10.
A549, MDA-MB-231, and ovc316 xenograft tumors were established by injection of the corresponding tumor cells into the mammary fat pad (1:1 with Matrigel) of CB17 mice. […] Tumor volumes were measured three times a week. […]
JO-1 and JO-4 are virus-derived proteins and immunogenic. In immunocompetent mice, serum IgG antibodies against these proteins can be detected by ELISA two weeks after injection (5). […]

B1: JO-1: dimeric protein that contains the wild-type Ad3 fiber knob and a self-dimerization domain (SEQ ID NO:27) (protein, listed as Homo sapiens)
chain: MKVSALKEKVSALKEKVSALKEKVSALKEKVSALKEGSGGGSGGGSGGGSNSIALKNNTLWTGPKPEANCIIEYGKQNPDSKLTLILVKNGGIVNGYVTLMGASDYVNTLFKNKNVSINVELYFDATGHILPDSSSLKTDLELKYKQTADFSARGFMPSTTAYPFVLPNAGTHNENYIFGQCYYKASDGALFPLEVTVMLNKRLPDSRTSYVMTFLWSLNAGLAPETTQATLITSPFTFSYIREDD
modifications: dimer
[1]
  Enhancement of irinotecan therapy: enhanced irinotecan therapy; also recorded: significant
[2]; 2 mg/kg i.v. one hour before PLD 1 mg/kg
  Enhancement of PLD therapy: significantly increased the treatment efficiency
[3]
  Enhancing effect on PLD therapy after repeated treatment cycles: enhancing effect; also recorded: continued to be effective

B2: JO-4 (protein)
chain: MKVSALKEKVSALKEKVSALKEKVSALKEKVSALKEGSGGGSGGGSGGGSNSIALKNNTLWTGPKPEANCIIEYGKQNPDSKLTLILVKNGGIVNGYVTLMGASDYVNTLFKNKNVSINVELYFDATGHILPDSSSLKTDLELKYKQTADFSARGFMPSTTAYPFVLPNAGTHNENFIFGQCYYKASDGALFPLEVTVMLNKRLPDSRTSYVMTFLWSLNAGLAPETTQATLITSPFTFSYIREDD
[1]
  Enhancement of irinotecan therapy: significantly more than JO-1; also recorded: significantly more efficient than JO-2
[2]; 0.5 mg/kg i.v. one hour before PLD 1 mg/kg
  Enhancement of PLD therapy: enhances PLD therapy
[3]
  Enhancing effect on PLD therapy after repeated treatment cycles: significantly stronger; also recorded: continued to be effective
